Molecular target: Nrx-1 C-term peptide (last 10 C-terminal residues of Drosophila Nrx-1) (Drosophila) (UniProt Q3KN41)
Assay: ITC; Nrx-1 C-term peptide with the PDZ domains of Spn or Syd-1; details in the Supplementary Methods

UniProt Q3KN41, sequence (Q3KN41 whole entry, looked up, the tested form may be a part): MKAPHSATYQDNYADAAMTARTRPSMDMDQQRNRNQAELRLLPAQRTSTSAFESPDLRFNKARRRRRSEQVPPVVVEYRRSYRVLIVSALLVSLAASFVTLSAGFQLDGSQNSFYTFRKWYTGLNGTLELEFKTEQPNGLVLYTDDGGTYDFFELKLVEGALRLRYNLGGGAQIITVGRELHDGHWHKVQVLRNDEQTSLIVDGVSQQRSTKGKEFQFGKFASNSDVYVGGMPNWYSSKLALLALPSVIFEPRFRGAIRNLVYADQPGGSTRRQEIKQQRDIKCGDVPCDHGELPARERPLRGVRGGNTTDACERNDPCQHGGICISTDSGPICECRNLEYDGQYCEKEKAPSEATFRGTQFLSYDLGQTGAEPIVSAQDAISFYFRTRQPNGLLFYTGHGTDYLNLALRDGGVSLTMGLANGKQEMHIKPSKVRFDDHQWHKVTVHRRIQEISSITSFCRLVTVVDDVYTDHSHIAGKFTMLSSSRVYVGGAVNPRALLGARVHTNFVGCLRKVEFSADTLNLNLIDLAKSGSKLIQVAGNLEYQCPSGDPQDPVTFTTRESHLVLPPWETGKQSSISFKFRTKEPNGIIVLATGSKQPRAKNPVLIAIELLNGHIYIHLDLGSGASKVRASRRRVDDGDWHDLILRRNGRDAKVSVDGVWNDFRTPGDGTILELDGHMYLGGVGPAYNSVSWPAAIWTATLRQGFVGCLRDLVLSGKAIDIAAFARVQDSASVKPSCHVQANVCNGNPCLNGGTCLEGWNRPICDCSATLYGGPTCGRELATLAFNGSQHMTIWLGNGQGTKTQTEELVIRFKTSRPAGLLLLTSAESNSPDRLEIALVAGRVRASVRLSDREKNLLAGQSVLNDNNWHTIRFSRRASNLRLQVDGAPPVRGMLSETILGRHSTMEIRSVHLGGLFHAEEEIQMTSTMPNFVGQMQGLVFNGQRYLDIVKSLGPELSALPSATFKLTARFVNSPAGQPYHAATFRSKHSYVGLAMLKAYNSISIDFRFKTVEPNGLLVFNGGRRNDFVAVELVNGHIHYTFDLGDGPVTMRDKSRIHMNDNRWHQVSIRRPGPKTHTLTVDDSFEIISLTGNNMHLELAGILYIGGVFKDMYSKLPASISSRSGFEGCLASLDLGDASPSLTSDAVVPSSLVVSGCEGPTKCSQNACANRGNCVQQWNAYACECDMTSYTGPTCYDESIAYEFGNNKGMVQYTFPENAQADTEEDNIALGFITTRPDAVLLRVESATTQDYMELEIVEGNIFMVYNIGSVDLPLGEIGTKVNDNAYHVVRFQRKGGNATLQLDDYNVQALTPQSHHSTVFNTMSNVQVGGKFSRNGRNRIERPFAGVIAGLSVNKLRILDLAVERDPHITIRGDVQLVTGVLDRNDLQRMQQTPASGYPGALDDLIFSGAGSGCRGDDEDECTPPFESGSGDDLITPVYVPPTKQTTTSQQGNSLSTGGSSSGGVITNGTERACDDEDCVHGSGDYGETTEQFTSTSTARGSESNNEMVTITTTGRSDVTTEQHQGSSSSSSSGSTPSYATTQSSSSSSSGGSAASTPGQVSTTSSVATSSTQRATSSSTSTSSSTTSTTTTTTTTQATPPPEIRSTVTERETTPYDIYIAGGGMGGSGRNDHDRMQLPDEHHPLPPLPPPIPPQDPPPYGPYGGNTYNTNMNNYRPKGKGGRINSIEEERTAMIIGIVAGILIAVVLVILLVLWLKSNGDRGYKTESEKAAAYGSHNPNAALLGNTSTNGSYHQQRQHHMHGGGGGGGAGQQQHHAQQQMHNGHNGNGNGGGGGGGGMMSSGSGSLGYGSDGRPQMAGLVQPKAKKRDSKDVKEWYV

Row | Kd [µM] | Substance
1 | 50 | Drosophila Spn-PDZ domain (dmSpn residues 1,258-1,347) (domain or fragment)
2 | 5 | Drosophila Syd-1-PDZ domain (dmSyd-1 residues 155-242) (domain or fragment)

Source: publication PMC4633989
